Laboratory results published in US20260242478A1 (published 2026).
Where “and” joins values, the source holds several entries; their conditions need not be identical. Identical values can stand only once. Like-named read-outs stand apart in the source and are kept apart here. Where no end group is shown, it is not given here.

Tests used:
[1] = target: anti-CD28 Fab; assay: competition ELISA, peptide titrated 0-100 uM against 1 nM anti-CD28 Fab, plate-bound CD28 as competitor
[2] = target: anti-CD28 Fab; assay: as above; remark: listed apart in the source
[3] = target: anti-CD28 Fab; assay: as above; remark: listed apart in the source
[4] = target: T1, anti-CD28 scFv (disulfide); assay: competition ELISA, peptide titrated 0-100 uM against 0.3 nM anti-CD28 scFv (disulfide), plate-bound CD28 as competitor
T1 construct: also called Anti-CD28 scFv (VH - linker 1 - VL) Disulfide mutation: G44C, G235C

[5] = target: T2, PSMA Fab (SEQ ID NOs: 19, 20); assay: competition ELISA, peptide titrated against 0.3 nM PSMA Fab on captured biotinylated PSMA
T2 construct: also called 006 PSMA Fab; anti-PSMA Fab

[6] = target: T2, PSMA Fab (SEQ ID NOs: 19, 20); assay: as above; remark: listed apart in the source
[7] = target: T3, Anti-CD28 Fab (SEQ ID NOs: 696, 697); assay: phage binding ELISA on captured anti-CD28 Fab; wells pre-incubated with CD28 antigen as competitor
T3 construct: In the phage ELISA the Fab was biotinylated and captured on neutravidin coated plates

[8] = target: T3, Anti-CD28 Fab (SEQ ID NOs: 696, 697); assay: phage binding ELISA; biotinylated anti-CD28 Fab captured on neutravidin plate, clonal phage supernatant, anti-M13 HRP detection
[9] = target: Ab-15; assay: binding ELISA: biotinylated peptide on neutravidin plate, Ab-15 titrated
[10] = target: Ab-15; assay: BLI (Octet): sensor loaded with 200 nM biotinylated peptide, 100 nM Ab-15
[11] = target: Ab-15; assay: competition ELISA: peptide titrated against 1 nM Ab-15; competitor plate-bound CD28
[12] = target: T4, PSMA Fab (Fab biotinylated for capture on neutravidin plates (site not given)); assay: phage ELISA: biotinylated PSMA Fab on neutravidin plate, clonal phage supernatant, anti-M13 HRP; blocking buffer alone
T4 construct: also called Anti-PSMA Fab; 006 PSMA Fab

[13] = target: T4, PSMA Fab; assay: phage ELISA: biotinylated PSMA Fab on neutravidin plate, clonal phage supernatant, anti-M13 HRP; wells pre-incubated with PSMA antigen as competitor
[14] = target: T2, PSMA Fab (SEQ ID NOs: 19, 20); assay: competition ELISA, peptide titrated against 0.3 nM PSMA Fab on captured biotinylated PSMA; remark: listed apart in the source
[15] = target: anti-CD28 Fab; assay: competition ELISA: peptide titrated (0-100 µM) with 1 nM anti-CD28 Fab, binding to plate-bound CD28
[16] = target: T5, anti-CD28 scFv (disulfide); assay: competition ELISA: peptide titrated (0-100 µM) with 0.3 nM anti-CD28 scFv (disulfide), binding to plate-bound CD28
T5 construct: also called Anti-CD28 scFv (VH - linker 1 - VL) Disulfide mutation: G44C, G235C

[17] = target: T6, anti-CD28 scFv; assay: BLI (Octet RED96): biotinylated peptide on streptavidin sensor, anti-CD28 scFv at 100-12.5 nM, 1:1 model
T6 construct: also called Anti-CD28 scFv (VH - linker 1 - VL)

[18] = target: anti-CD28 Fab; assay: competition ELISA: peptide titrated (0-100 µM) with 1 nM anti-CD28 Fab, binding to plate-bound CD28; remark: listed apart in the source
[19] = target: anti-CD28 Fab; assay: BLI (Octet): biotinylated peptide on streptavidin sensor, anti-CD28 Fab titrated in solution, 1:1 model

Binder: YCAGHAWQYINKCL
- IC50 [1]: 13.8 µM
- IC50 [2]: 9.76 µM
- IC50 [3]: 12.6 µM
- IC50 [4]: > 100 µM

Binder: IECAYMTDQRFWCW (cysteine pairing not given here; also: biotinylated (site not given here), PSMA peptide mask (P2)) [Peptide-188]
- IC50 [5]: 7.22 µM

Binder: YECHQGLFHRWCVN (cysteine pairing not given here; also: biotinylated (site not given here), PSMA peptide mask (P2)) [Peptide-158]
- IC50 [6]: 17.3 µM

Binder: YCAGHLDEYMEKCL [Phage-1332 (Peptide-87 library sequence, SEQ ID NO: 1648)]
- Phage binding ELISA, Anti-CD28 Fab signal in the presence of CD28 [7]: 0.07
- Phage binding ELISA, Anti-CD28 Fab signal [8]: 0.4

Binder: LDWCPRHLWALCFN (cysteine pairing not given here; also: biotinylated, site not given here, CD28 peptide mask) [Peptide-70]
- EC50 [9]: 0.0082 µM
- Octet signal (200 nM peptide) [10]: 0.697
- IC50 [11]: 0.47 µM

Binder: PLCGTEEVWWECRL (cysteine pairing not given here; also: biotinylated (site not given here), PSMA peptide mask (P2)) [Peptide-166]
- IC50 [6]: 19.2 µM

Binder: FEVRCVPTWMCAGQ (peptide, not shown: large carriers, Clonal phage of the Peptide-180 library) [Phage-4010]
- phage binding ELISA signal [12]: 0.427
- phage binding ELISA signal [13]: 0.069

Binder: IAVLCQPNWMCAGF (cysteine pairing not given here; also: biotinylated (site not given here), PSMA peptide mask (P2)) [Peptide-180]
- IC50 [5]: 4.54 µM
- IC50 [14]: 4.5 µM

Binder: VPWCQIISGLECLT (cysteine pairing not given here; also: biotinylated, site not given here, CD28 peptide mask) [Peptide-73]
- EC50 [9]: 0.0549 µM
- Octet signal (200 nM peptide) [10]: 0.166
- IC50 [11]: > 100 µM

Binder: YCDGHTWMYKQKCL [Phage-1333 (Peptide-87 library sequence, SEQ ID NO: 1649)]
- Phage binding ELISA, Anti-CD28 Fab signal in the presence of CD28 [7]: 0.08
- Phage binding ELISA, Anti-CD28 Fab signal [8]: 0.4

Binder: YCAGHSPINIGKCL [Peptide-84]
- IC50 [1]: 26.8 µM
- IC50 [4]: > 100 µM

Binder: YECHQGLFHRWCVN (cysteine pairing not given here; also: biotinylated (site not given here), PSMA peptide mask (P2)) [Peptide-185]
- IC50 [5]: 23 µM

Binder: MDWCPRDLWVHCFA [Peptide-41]
- IC50 [1]: > 100 µM
- IC50 [4]: 61.5 µM

Binder: IYWCPIDRWNDCYN (cysteine pairing not given here; also: biotinylated, site not given here, CD28 peptide mask) [Peptide-74]
- EC50 [9]: 0.0076 µM
- Octet signal (200 nM peptide) [10]: 0.705
- IC50 [11]: 0.41 µM

Binder: IDWCPLHLWHECYH (cysteine pairing not given here; also: biotinylated, site not given here, CD28 peptide mask) [Peptide-72]
- EC50 [9]: 0.0133 µM
- Octet signal (200 nM peptide) [10]: 0.838
- IC50 [11]: 1.52 µM

Binder: SCAAGASYAWPYCL [Peptide-92]
- IC50 [15]: 7.89 µM

Binder: SCAAGAAYAWPYCL [Peptide-101]
- IC50 [15]: 7.42 µM
- IC50 [16]: 36.2 µM

Binder: SCAAGASYAWPACL [Peptide-105]
- IC50 [15]: 13 µM
- IC50 [16]: 56.9 µM

Binder: SCAAGASYAWPYCA [Peptide-106]
- IC50 [15]: 76.4 µM

Binder: ACAAGASYAWPYCL [Peptide-99]
- IC50 [15]: 21 µM
- IC50 [16]: 67 µM

Binder: APRMCSPPWMCYEL (peptide, not shown: large carriers, Clonal phage of the Peptide-180 library) [Phage-4013]
- phage binding ELISA signal [12]: 0.416
- phage binding ELISA signal [13]: 0.0661

Binder: GWRQCEPVWMCSGF (peptide, not shown: large carriers, Clonal phage of the Peptide-180 library) [Phage-4011]
- phage binding ELISA signal [12]: 0.423
- phage binding ELISA signal [13]: 0.0672

Binder: GYCHYWGDMVMWCG (cysteine pairing not given here; also: biotinylated, site not given here) [Peptide-12]
- Kd [17]: 0.017 µM
- koff [17]: 0.00167 s⁻¹
- kon [17]: 98700 M⁻¹ s⁻¹

Binder: PELRCVPFWMCSFN (cysteine pairing not given here; also: biotinylated (site not given here), PSMA peptide mask (P2)) [Peptide-181]
- IC50 [5]: 11.2 µM
- IC50 [14]: 26.1 µM

Binder: MRSVCVPSWMCSGF (peptide, not shown: large carriers, Clonal phage of the Peptide-180 library) [Phage-4012]
- phage binding ELISA signal [12]: 0.422
- phage binding ELISA signal [13]: 0.176

Binder: WCWDYKLWVPMTCP [Peptide-85]
- IC50 [1]: > 100 µM
- IC50 [4]: > 100 µM

Binder: ACDTYFAGMINECF [Peptide-79]
- IC50 [1]: > 100 µM
- IC50 [4]: > 100 µM

Binder: LMKWCTPRWMCAAE (cysteine pairing not given here; also: biotinylated (site not given here), PSMA peptide mask (P2)) [Peptide-179]
- IC50 [5]: 4.44 µM
- IC50 [14]: 4.6 µM

B1: Peptide-87 (peptide)
peptide: YCAGHAWQYINKCL
modifications: not fully specified; cysteine pairing not given here; also: biotinylated, site not given here
- IC50 [18]: 12.6 µM
- Kd [19]: 2.02 µM
- koff [19]: 0.0202 s⁻¹
- kon [19]: 10000 M⁻¹ s⁻¹
- t1/2 [19]: 36 s
- IC50 [16]: 11 µM and 14.6 µM

B2: Peptide-114 (peptide)
peptide: YCAGHAWQYIAKCL
notes: Alanine scan variant of Peptide-87 (N11A)
- IC50 [18]: 5.49 µM
- IC50 [16]: 7.09 µM

B3: Peptide-116 (peptide)
peptide: YCAGHAWQYINKCA
notes: Alanine scan variant of Peptide-87 (L14A)
- IC50 [18]: 98.6 µM
- IC50 [16]: 76.4 µM

B4: Peptide-111 (peptide)
peptide: YCAGHAWAYINKCL
notes: Alanine scan variant of Peptide-87 (Q8A)
- IC50 [18]: 12.3 µM
- IC50 [16]: 10.5 µM

B5: Peptide-110 (peptide)
peptide: YCAGHAAQYINKCL
notes: Alanine scan variant of Peptide-87 (W7A)
- IC50 [18]: 3.16 µM
- IC50 [16]: 1.91 µM

B6: Peptide-113 (peptide)
peptide: YCAGHAWQYANKCL
notes: Alanine scan variant of Peptide-87 (I10A)
- IC50 [18]: 102 µM

Binder: MDWCPRERWVDCFF (cysteine pairing not given here; also: biotinylated, site not given here) [Peptide-9]
- Kd [17]: 0.377 µM
- koff [17]: 0.0123 s⁻¹
- kon [17]: 32500 M⁻¹ s⁻¹
